The nature of the test: Glucosylation of α-D-GlcpNAc-OAll by purified F290D, F290K and ASNPwt (146 mM sucrose + 146 mM acceptor). In kind it is biochemical. The procedure: All assays were performed at 30° C. in 50 mM Tris buffer, pH=7.0. For the acceptor reactions, F290D, F290K and ASNPwt (1G5A) were tested on α-D-GlcpNAc-OAll.
Comparison of products synthesized by wild-type and AS variants. Reactions were performed in the presence of 146 mM sucrose alone or supplemented with 146 mM acceptor. The purified wild-type or mutated GST/AS were employed at 0.5 U/mL. The reactions were stopped by heating at 95° C. for 5 min. The final mixture was centrifuged at 18 000 g for 10 min, filtered on 0.22 μm membrane and analyzed by HPLC, as previously described.
Soluble and insoluble oligosaccharides produced during the reaction were identified by HPAEC using a Dionex Carbo-Pack PA100 column at 30° C. Before analysis, the insoluble fraction was solubilized in KOH at a final total sugar concentration of 10 g/kg. Mobile phase (150 mM NaOH) was set at 1 mL/min flow rate with a sodium acetate gradient (going from 6 to 500 mM within 120 min). Detection was performed using a Dionex ED40 module with a gold working electrode and an Ag/AgCl pH reference. Note that α-D-GlcpNAc-OAll (acceptor) and its derivatives are not oxidable products and thus are not detectable by HPAEC. Sucrose, glucose, fructose, α-D-GlcpNAc-OAll (acceptor) and its derivatives (glucosylation products) were quantified by HPLC, as previously described

The mark [1] stands for this setting: purified enzyme, Sucrose=Acceptor=146 mM, compared with ASNPwt.

We go through one molecule from patent US20110086767A1, “MUTANTS OF GLYCOSIDE HYDROLASES AND USES THEREOF FOR SYNTHESIZING COMPLEX OLIGOSACCHARIDES AND DISACCHARIDE INTERMEDIATES” (Institut Pasteur, priority 2008, published 2011).

B1: F290K: single mutant F290K of N. polysaccharea amylosucrase 1G5A (protein)
chain: SPNSQYLKTRILDIYTPEQRAGIEKSEDWRQFSRRMDTHFPKLMNELDSVYGNNEALLPMLEMLLAQAWQSYSQRNSSLKDIDIARENNPDWILSNKQVGGVCYVDLFAGDLKGLKDKIPYFQELGLTYLHLMPLFKCPEGKSDGGYAVSSYRDVNPALGTIGDLREVIAALHEAGISAVVDFIFNHTSNEHEWAQRCAAGDPLFDNFYYIFPDRRMPDQYDRTLREIFPDQHPGGFSQLEDGRWVWTTFNSFQWDLNYSNPWVFRAMAGEMLFLANLGVDILRMDAVAKIWKQMGTSCENLPQAHALIRAFNAVMRIAAPAVFFKSEAIVHPDQVVQYIGQDECQIGYNPLQMALLWNTLATREVNLLHQALTYRHNLPEHTAWVNYVRSHDDIGWTFADEDAAYLGISGYDHRQFLNRFFVNRFDGSFARGVPFQYNPSTGDCRVSGTAAALVGLAQDDPHAVDRIKLLYSIALSTGGLPLIYLGDEVGTLNDDDWSQDSNKSDDSRWAHRPRYNEALYAQRNDPSTAAGQIYQDLRHMIAVRQSNPRFDGGRLVTFNTNNKHIIGYIRNNALLAFGNFSEYPQTVTAHTLQAMPFKAHDLIGGKTVSLNQDLTLQPYQVMWLEIA
As for B1, the “maltooligosaccharide formation on addition of acceptor” value (146 mM sucrose supplemented with 146 mM α-D-GlcpNAc-OAll, t=24 h) is “totally suppressed”. Further, under setting [1], the “times more efficient for α-D-GlcpNAc-OAll glucosylation” value is on record as 10 times and the “times more efficient to form α-D-Glcp-(1→4)-D-GlcpNAc-OAll” value worked out at 20 times.
